The text below walks through data of patent US20240084003A1 (SIMCERE ZAIMING PHARMACEUTICAL, published 2024).

The term Kd denotes a measure of binding affinity in units of concentration. The term koff denotes a measure of how fast the partners let go of each other. By kon is commonly meant the second-order rate constant of association.

Test [1] deals with T1, human CD22-ECD-His protein (human, UniProt P20273 20-687).
T1 construct: Recombinant, from HEK293E cells; also called hCD22-ECD-His; human CD22-His protein; not shown: His tag
T1 sequence: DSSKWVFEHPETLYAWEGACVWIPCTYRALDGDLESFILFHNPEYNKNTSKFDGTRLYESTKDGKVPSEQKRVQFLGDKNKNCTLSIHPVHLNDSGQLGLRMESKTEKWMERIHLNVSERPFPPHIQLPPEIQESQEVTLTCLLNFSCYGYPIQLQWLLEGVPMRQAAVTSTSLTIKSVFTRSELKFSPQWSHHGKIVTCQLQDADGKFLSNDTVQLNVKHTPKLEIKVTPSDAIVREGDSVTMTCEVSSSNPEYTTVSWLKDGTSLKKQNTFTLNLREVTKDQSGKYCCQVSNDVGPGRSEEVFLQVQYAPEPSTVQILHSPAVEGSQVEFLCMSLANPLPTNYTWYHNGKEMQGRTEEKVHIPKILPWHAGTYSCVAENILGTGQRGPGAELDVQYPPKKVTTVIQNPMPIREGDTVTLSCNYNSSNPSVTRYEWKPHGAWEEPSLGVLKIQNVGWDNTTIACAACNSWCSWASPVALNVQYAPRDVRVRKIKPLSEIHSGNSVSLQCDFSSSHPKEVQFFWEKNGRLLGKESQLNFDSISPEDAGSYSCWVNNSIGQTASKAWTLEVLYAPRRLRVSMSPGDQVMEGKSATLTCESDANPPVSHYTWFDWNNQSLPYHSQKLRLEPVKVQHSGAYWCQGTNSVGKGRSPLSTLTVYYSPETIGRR
In words: SPR (Biacore), antibody captured on Protein A chip, CD22-ECD-His in solution. The essentials: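 Antibody captured on Protein A chip, then human CD22-ECD-His injected for 240 s at 30 μL/min, 5 concentrations from 200 nM (1:1 dilution), dissociation up to 600 s, in HBS-EP+ at 25° C. Responses double-referenced; apparent KD and kinetic constants fitted to a Langmuir 1:1 model.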
(Surface plasmon resonance follows binding to a sensor surface in real time, without labels.)

A further test deals with T2, human CD22 domain1-4-His (human, UniProt P20273 20-425).
T2 construct: also called hCD22 domain1-4-His; not shown: His tag
T2 sequence: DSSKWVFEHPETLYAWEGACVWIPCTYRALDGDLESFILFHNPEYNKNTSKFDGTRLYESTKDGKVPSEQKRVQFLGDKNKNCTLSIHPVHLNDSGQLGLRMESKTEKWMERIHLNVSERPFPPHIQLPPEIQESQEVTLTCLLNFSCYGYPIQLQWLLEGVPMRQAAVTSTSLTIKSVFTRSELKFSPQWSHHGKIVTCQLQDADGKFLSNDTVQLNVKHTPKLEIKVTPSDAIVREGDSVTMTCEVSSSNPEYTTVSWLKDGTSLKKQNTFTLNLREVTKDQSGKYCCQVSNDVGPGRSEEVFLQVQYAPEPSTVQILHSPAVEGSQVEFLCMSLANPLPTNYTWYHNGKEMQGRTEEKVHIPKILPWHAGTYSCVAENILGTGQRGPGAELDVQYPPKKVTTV
In words: ELISA, plate coated with human CD22 domain1-4-His. For orientation: An ELISA detects its analyte on a solid surface through an enzyme-linked reagent.

For test [2], the target named is T3, rhesus monkey CD22-ECD-His protein (rhesus monkey, UniProt H9G1X2 18-686).
T3 construct: extracellular domain; also called monkey CD22 protein
T3 sequence: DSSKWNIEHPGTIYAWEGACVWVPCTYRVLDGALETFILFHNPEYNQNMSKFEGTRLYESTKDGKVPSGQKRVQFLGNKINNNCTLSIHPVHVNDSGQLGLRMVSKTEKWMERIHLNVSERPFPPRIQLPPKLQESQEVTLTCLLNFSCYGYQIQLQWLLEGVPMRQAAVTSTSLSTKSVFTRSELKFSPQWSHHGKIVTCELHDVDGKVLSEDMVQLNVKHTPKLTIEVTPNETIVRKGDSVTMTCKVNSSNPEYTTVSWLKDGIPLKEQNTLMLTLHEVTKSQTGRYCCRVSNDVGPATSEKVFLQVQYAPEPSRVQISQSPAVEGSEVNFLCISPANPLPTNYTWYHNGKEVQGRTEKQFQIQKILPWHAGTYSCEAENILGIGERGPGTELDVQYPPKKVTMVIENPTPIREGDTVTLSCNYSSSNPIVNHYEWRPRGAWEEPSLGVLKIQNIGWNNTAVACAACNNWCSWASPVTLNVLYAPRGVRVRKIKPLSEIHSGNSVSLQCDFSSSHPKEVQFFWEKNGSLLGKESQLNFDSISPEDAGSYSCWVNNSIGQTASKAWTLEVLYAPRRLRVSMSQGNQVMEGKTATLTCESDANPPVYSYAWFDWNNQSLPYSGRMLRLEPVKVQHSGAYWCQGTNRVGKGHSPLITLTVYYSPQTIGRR
In words: SPR (Biacore), antibody captured on Protein A chip, rhesus CD22 in solution.

B1: F1.105.11 (antibody, human IgG1, kappa, V domains shown)
VH: EVQLQQSGPVLVKPGASVKMSCKASGYTFSDYFMNWVKQSHGKSLEWIGIINSYSGGTSYNQKFKGKATLTVDKSSSTAYMELNSLTSEDSAVYYCARWMDYWGQGTSVTVSS
VL: DVQITQSPSYLAASPGETITINCRTSESISKHLAWYQEKPGKTNKLLIYSGSTLQSGIPSRFSGSGSGTDFTLTISSLEPEDFAMYYCQQHNEYPWTFGGGTKLEIKR
notes: Chimeric IgG1 kappa
On to B1, for which, in test [1], binding was put at a Kd of 0.514 nM, the koff was 0.000154 s⁻¹ and the kon was 299000 M⁻¹ s⁻¹. For the same molecule, in the test with human CD22 domain1-4-His, the binding result is “no binding”. In test [2], this molecule gave a Kd of 17.3 nM, an off-rate constant (koff) of 0.000448 s⁻¹ and an association rate constant (kon) of 25900 M⁻¹ s⁻¹.

B2: F1.200.11 (antibody, human IgG1, kappa, V domains shown)
VH: QNQLVQSGPELKKPGETVKISCKASGYTFTTAGMQWVQKMPGKGFKWIGWINTLSGEPKYAEDFKGRFAFSLETSATTAYLQISNLKNEDTATYFCARAYYSNLYWYFDVWGTGTTVTVSS
VL: DIVMTQSQKFMSTTVGDRVTITCKASQNVVTAVAWYQQKPGQSPKVLIYSASNRYSGVPDRFTGSGSGTDFTLTISNMHSEDLANYFCHQYSSYPFTFGSGTKLEIKR
notes: Chimeric IgG1 kappa
As for B2, in test [1], the equilibrium dissociation constant (Kd) stood at 102 nM, the koff was found to be 0.00102 s⁻¹ and the on-rate constant (kon) is 9980 M⁻¹ s⁻¹. Also, the binding result with human CD22 domain1-4-His is listed as “no binding”. In test [2], the affinity, expressed as Kd, was 44.2 nM; the koff came to 0.000596 s⁻¹; the on-rate constant (kon) was determined as 13500 M⁻¹ s⁻¹.

B3: F1.192.1 (antibody, human IgG1, kappa, V domains shown)
VH: AVQLQQSGVELVRPGASVKLSCTGSDFNIKEDYIHWVKQRPEQGLEWIGWIDPENGDTEYASKFQGKATITADTSSNTAYLQLSSLTSEDTAVYYCATYGSLDYWGQGTTLTVSS
VL: DIKMTQSPSSMYAFLGERVTITCKASQGINSFLTWFQQKPGKSPKTLIYRANRLVDGVPSRFSGSGSGQDYSLTISSLEYEDVGIYYCLQYDEFPRTFGGGTKLEIKR
notes: Chimeric IgG1 kappa
In test [1], B3 had a Kd of 1.08 nM, a koff of 0.000244 s⁻¹ and a kon of 225000 M⁻¹ s⁻¹. Further, the binding result in the test with human CD22 domain1-4-His was “no binding”. For the same molecule, in test [2], binding was put at a Kd of 23.1 nM, the koff was determined as 0.0016 s⁻¹ and the kon is 69200 M⁻¹ s⁻¹.

B4: F2.151.13 (antibody, human IgG1, lambda, V domains shown)
VH: QVHLQQPGTELMKPGASVKLSCKATGYTFRDYWLEWVKQRPGHGLEWIGEILPGSGNAYYNEKFKGKATFTADTSSNTAYMQLSSLTTEDSAIYYCARVYSNWYFDAWGKGTTVTVSS
VL: QAVVTQESALTTSPGETVTLTCRSSTGAVTTSNYANWVQEKPDHLFTGLIGGTNNQAPGVPARFSGSLIGDKAALTISGAQTEDEAIYFCALWFSNHWVFGGGTKLTVLG
notes: Chimeric IgG1 lambda
In test [1], B4 had a dissociation constant (Kd) of 22.7 nM, an off-rate (koff) of 0.000533 s⁻¹ and an on-rate (kon) of 23500 M⁻¹ s⁻¹. Further, the binding result in the test with human CD22 domain1-4-His was “no binding”. Also, in test [2], binding was characterised by a dissociation constant (Kd) of 27.5 nM, the off-rate (koff) worked out at 0.000528 s⁻¹ and the on-rate (kon) was found to be 19200 M⁻¹ s⁻¹.
